US20200071424A1 (SHIONOGI, published 2020)

Tests used:
[1] = molecular target: T1, human [1-305]-mouse chimeric EL (human; mouse, UniProt Q9WVG5 306-500); assay: Biacore (as for the other anti-EL antibodies)
T1 construct: Heparin extract, captured or detected by an anti-C2-tag antibody; also called human-mouse chimeric EL
T1 sequence: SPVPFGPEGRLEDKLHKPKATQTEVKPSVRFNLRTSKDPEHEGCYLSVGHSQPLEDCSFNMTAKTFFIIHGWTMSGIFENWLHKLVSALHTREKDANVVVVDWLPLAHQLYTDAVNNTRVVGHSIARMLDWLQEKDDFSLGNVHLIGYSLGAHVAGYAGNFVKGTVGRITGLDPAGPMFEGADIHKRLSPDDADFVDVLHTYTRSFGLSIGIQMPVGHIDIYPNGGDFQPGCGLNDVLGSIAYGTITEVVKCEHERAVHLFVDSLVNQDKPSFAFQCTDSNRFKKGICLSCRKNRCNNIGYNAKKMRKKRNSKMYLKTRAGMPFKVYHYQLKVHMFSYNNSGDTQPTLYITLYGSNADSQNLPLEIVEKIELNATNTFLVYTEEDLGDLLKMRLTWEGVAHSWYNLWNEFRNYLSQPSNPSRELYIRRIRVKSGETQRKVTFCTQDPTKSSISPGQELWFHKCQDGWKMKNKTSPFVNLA

baboon EL [2] = molecular target: T2, baboon EL (baboon); assay: Biacore (as for the other anti-EL antibodies)
T2 construct: Heparin extract

mouse EL [3] = molecular target: T3, mouse EL (mouse, UniProt Q9WVG5 21-500); assay: Biacore (as for the other anti-EL antibodies)
T3 construct: Heparin extract
T3 sequence (looked up): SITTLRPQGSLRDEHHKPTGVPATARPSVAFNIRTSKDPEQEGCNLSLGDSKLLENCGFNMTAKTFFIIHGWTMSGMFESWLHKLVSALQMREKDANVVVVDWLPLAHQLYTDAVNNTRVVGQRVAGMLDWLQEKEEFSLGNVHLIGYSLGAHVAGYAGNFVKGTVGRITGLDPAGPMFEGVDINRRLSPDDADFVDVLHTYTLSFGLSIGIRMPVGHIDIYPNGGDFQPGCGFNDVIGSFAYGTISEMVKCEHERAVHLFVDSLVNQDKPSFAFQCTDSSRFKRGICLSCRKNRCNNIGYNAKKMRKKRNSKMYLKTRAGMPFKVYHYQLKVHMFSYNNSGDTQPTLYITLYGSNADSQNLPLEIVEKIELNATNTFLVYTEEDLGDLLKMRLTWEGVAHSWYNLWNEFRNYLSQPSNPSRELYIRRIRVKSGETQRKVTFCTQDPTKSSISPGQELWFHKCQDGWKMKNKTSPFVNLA

[4] = molecular target: T1, human [1-305]-mouse chimeric EL; assay: ELISA: antibody captured on anti-mouse IgG-Fc plate, EL heparin extract added, detection with biotin anti-C2-tag antibody and HRP-streptavidin, A450
Chimeric EL [187-500] = molecular target: T4, Chimeric EL [187-500] (mouse;human); assay: as above
T4 construct: construct not described further; Used as heparin extract and detected through anti-C2-tag antibody; also called human (187-500) mouse chimera EL

baboon EL [5] = molecular target: T2, baboon EL; assay: as above
[6] = molecular target: T1, human [1-305]-mouse chimeric EL; assay: cell-based or functional assay
rabbit EL = rabbit EL (rabbit); assay: cell-based or functional assay
baboon EL [7] = molecular target: T2, baboon EL; assay: cell-based or functional assay
mouse EL [8] = molecular target: T3, mouse EL; assay: cell-based or functional assay

- Kd [1]: 14 nM
- koff [1]: 0.004 s⁻¹
- kon [1]: 330000 M⁻¹ s⁻¹
- Kd (baboon EL [2]): 0.42 nM
- koff (baboon EL [2]): 0.0001 s⁻¹
- kon (baboon EL [2]): 240000 M⁻¹ s⁻¹
- Kd (mouse EL [3]): 0.68 nM
- koff (mouse EL [3]): 0.00015 s⁻¹
- kon (mouse EL [3]): 220000 M⁻¹ s⁻¹
- EC50 (read off the curve) [4]: ~0.002 µg/mL
- EC50 (read off the curve) (Chimeric EL [187-500]): ~0.02 µg/mL
- EC50 (read off the curve) (baboon EL [5]): ~0.02 µg/mL
- Neutralizing activity IC50 [6]: 4 nM
- Neutralizing activity IC50 (rabbit EL): 2.3 nM
- Neutralizing activity IC50 (baboon EL [7]): 2.8 nM
- Neutralizing activity IC50 (mouse EL [8]): 2.5 nM
B1: 16F6 (antibody, V domains shown)
VH: QVQLQQSGAELMKPGASVKISCKATGYTFSTYWIAWVKQRPGHGLEWIGEILPGSAKTKYNKKFKGKATFTADTSSNTAYMQLSSLTSEDSAVYYCAVYDYGADYWGQGTSVTVSS
VL: DIVMTQSHKFMSTSVGDRVSITCKASQDVYTAVAWYQQKPGQSPKLLIYSASYRFTGVPDRFTGSGAGTEFTFTINSVQAEDLAVYYCQQHYSIPRTFGGGTKLEIK
notes: mouse IgG1 raised in EL knock-out mice; not tied one by one
